What is called Kd is a measure of binding affinity in units of concentration. Higher therefore signals lower affinity.

This passage reports Kd results from paper PMC10694592, “A conserved core region of the scaffold NEMO is essential for signal-induced conformational change and liquid-liquid phase separation” (The Journal of Biological Chemistry, 2023).

The target of this assay is FITC-labeled 45-mer peptide derived from the C-terminal region of IKKβ (FITC label (position not given)). Nature of the assay: fluorescence polarisation; fluorescence anisotropy binding assay with an FITC-labeled 45-mer peptide of IKKβ and bacterially expressed full-length NEMO proteins; conditions not told here (refs 13, 26). The following applies: both partners purified. (In general: Fluorescence polarisation rises when a labelled molecule tumbles more slowly, as on binding a larger partner.)

B1: 7XAla-NEMO (aa 1-419), bacterially expressed (natural protein)
chain: MNRHLWKSQLAEMVQPSGGPAADQDVLGEESPLGKPAMLHLPSEQGAPETLQRALEENQELRDAIRQSNQILRERAEELLHFQASQREEKEFLMAKFQEARKLVERLGLEKLDLKRQKEQALREVEHLKRAQQQMAEDKASVKAQVTSLLGELQESQSRLEAATKEAQALEGRARAASEQARQLESEREALQQQHSVQVDQLRMQGQSVEAALRMERQAASEEKRKLAQLQVAYHQLFQEYDNHIKSSVVGSERKRGMQLEDLKQQLQQAEEALVAKQEVIDKLKEEAEQHKIVMETVPVLKAQADIYKADFQAERQAREKLAEKKELLQEQLEQLQREYSKLKASAQESARIEDMRKRHVEVSQAPLPPAPAYLSSPLALPSQRRSPPEEPPDFCCPKCQYQAPDMDTLQIHVMECIE
For B1, binding was put at a Kd of 13 ± 2.9 nM.
